The supplement of paper PMC10724198
± gives the standard deviation of the averaged measurements.
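Further: PSI is a weighted mean of sequencing reads over stability bins, variants kept only with over 10 reads, mCherry proximal and sfGFP distal, peptide attached via GGGS linker.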

What follows are sequences tested on Saccharomyces cerevisiae (assay: protein stability index of tFT-peptide fusion (C-terminal peptide) (PSI (0-1 scale)); higher = more stable (slower turnover)). Conditions: genetic background: wild type; temperature: 30 C.
With SQCGSLQIGRHL the protein stability index was 0.714 ± 0.052. ARCGNSAPWHVG gave a protein stability index of 0.693 ± 0.019. Sequence RGSYLAFRVYGP has a protein stability index of 0.648 ± 0.03. Sequence GERRREKRKNSG has a protein stability index of 0.726 ± 0.046. Work on VVKGGGLGRRAG yielded a protein stability index of 0.66 ± 0.089. AGRTGVLGGHVP gave a protein stability index of 0.691 ± 0.0095. GRRPPWRFSFPF gave a protein stability index of 0.769 ± 0.063. WCPGVSGVAGVF gave a protein stability index of 0.703 ± 0.056. Work on VVYGVSHEETST yielded a protein stability index of 0.622 ± 0.018. For GASGGNRTGRRS, the protein stability index was 0.681 ± 0.022. PPPCPHLAPRLP showed a protein stability index of 0.714 ± 0.071. Sequence GLPTFLTDSSFW has a protein stability index of 0.725 ± 0.039. SPASPNALPAAP was tested, and the protein stability index was 0.741 ± 0.046. For VNTNLRSTRSNT, the protein stability index was 0.7271 ± 0.0061. SGDLLLGCTLVV gave a protein stability index of 0.6313 ± 0.0018. KLFWYLDCKLLY showed a protein stability index of 0.579 ± 0.0073. Work on LVLLDQISVPLI yielded a protein stability index of 0.6474 ± 0.00096. TSVAYVWRLFTE showed a protein stability index of 0.597 ± 0.016. In the case of PPGPPPSSPPPP, the protein stability index is reported as 0.73 ± 0.024. In the case of RTTDPHNRPIRP, the protein stability index is reported as 0.6552 ± 0.0047. KIKNYNSGKIKK gave a protein stability index of 0.716 ± 0.024. TAHPCVYRRGAV gave a protein stability index of 0.675 ± 0.021. CNLVCFRRFLYR showed a protein stability index of 0.62 ± 0.041. In the case of RCERKTGHHYRT, the protein stability index is reported as 0.637 ± 0.072. For TQLEHQRESKSI, the protein stability index was 0.672 ± 0.021. In the case of CLGPGTFLLFFV, the protein stability index is reported as 0.5952 ± 0.0026. LPRPPAPPMRYM gave a protein stability index of 0.70928 ± 9.3e-05. With NRVHLPELAFIT the protein stability index was 0.662 ± 0.014. With KINQDKKKGKKK the protein stability index was 0.686 ± 0.079. Work on NKFNTINQNREV yielded a protein stability index of 0.678 ± 0.04. For RRVRTTKKGLTI, the protein stability index was 0.7266 ± 0.0036. In the case of PRPVRPSPHPPP, the protein stability index is reported as 0.689 ± 0.1. With DPSMSNRDRRLP the protein stability index was 0.708 ± 0.036. In the case of FIHVPAYGNVCV, the protein stability index is reported as 0.611 ± 0.058. For PFPRSSPPPPPD, the protein stability index was 0.652 ± 0.017. SSWWGARVARRG gave a protein stability index of 0.756 ± 0.041. PPLPSSLPPISF showed a protein stability index of 0.703 ± 0.015. HVTRGMTHLTLF showed a protein stability index of 0.635 ± 0.036. For TKIPVLLKNSAN, the protein stability index was 0.704 ± 0.062. IKVNAVAWLFGS showed a protein stability index of 0.582 ± 0.032. For PPTPPPLRPSFS, the protein stability index was 0.704 ± 0.023. Sequence VDVPAGPGGGAC has a protein stability index of 0.641 ± 0.077. VRYRSGLVFEGV showed a protein stability index of 0.747 ± 0.039. SFVRTLSCISIF showed a protein stability index of 0.513 ± 0.053. Work on VFCGRVVVGSVV yielded a protein stability index of 0.65745 ± 0.0006. ILILDTKPISKT was tested, and the protein stability index was 0.7258 ± 0.006. For SIRPPPPSSFPA, the protein stability index was 0.806 ± 0.069. RQGGTMVRLLGY gave a protein stability index of 0.651 ± 0.089. For ITYRTSGMGIRA, the protein stability index was 0.6182 ± 0.0028. PPSPSPHPPPSH showed a protein stability index of 0.842 ± 0.15. Sequence LSIGGDLLFLRE has a protein stability index of 0.716 ± 0.067. Sequence VLAFSPCPPPPP has a protein stability index of 0.657 ± 0.026. For ARPAPHRSRRPS, the protein stability index was 0.68 ± 0.013. In the case of LLGKVAYFFMFG, the protein stability index is reported as 0.631 ± 0.025. GRVRARGRRGKG showed a protein stability index of 0.625 ± 0.058. RMGQQISSVRLF showed a protein stability index of 0.679 ± 0.0082. For WGGCALEQGGAV, the protein stability index was 0.736 ± 0.025. Work on RLPASGTPAYSE yielded a protein stability index of 0.67 ± 0.02. MVGASFAILGFI was tested, and the protein stability index was 0.699 ± 0.014. For RSRRRFPPPPPI, the protein stability index was 0.672 ± 0.062. With GPGFRSGVELVW the protein stability index was 0.759 ± 0.069. FSSLLLMEVFLP showed a protein stability index of 0.686 ± 0.011. LELTTIRHNHEL showed a protein stability index of 0.695 ± 0.029. In the case of KVAGRLAATRSR, the protein stability index is reported as 0.716 ± 0.013. In the case of SGPTPCRSPRLL, the protein stability index is reported as 0.636 ± 0.051. With HPPHPPPLPGSP the protein stability index was 0.802 ± 0.076. With AYPRLRPSPSPH the protein stability index was 0.7212 ± 0.0066. In the case of GLSALVVCPSWG, the protein stability index is reported as 0.65062 ± 0.00034. DLIHLVVIVPMV gave a protein stability index of 0.554 ± 0.035. GRGKGNEREVRT was tested, and the protein stability index was 0.656 ± 0.022. Sequence DFAGVCRWSLRG has a protein stability index of 0.6446 ± 0.0025. KVAFKTNQHLGR was tested, and the protein stability index was 0.661 ± 0.03. Work on RGWRYRAEGFRG yielded a protein stability index of 0.663 ± 0.022. PPPPPTRPPTRV gave a protein stability index of 0.68 ± 0.079. With DGHSMFNRLIRS the protein stability index was 0.64232 ± 0.00017. AGGRGGGLGLWC was tested, and the protein stability index was 0.724 ± 0.1. Sequence KIKKKRGKTKKK has a protein stability index of 0.708 ± 0.018. Work on SLFSPSQLQSFS yielded a protein stability index of 0.718 ± 0.012. Work on FERVLVFENRKY yielded a protein stability index of 0.728 ± 0.051. IAFFFLHIPPAF showed a protein stability index of 0.569 ± 0.076. With FFPPPPPATPPA the protein stability index was 0.663 ± 0.072. RAPGPGQIRLVQ showed a protein stability index of 0.72 ± 0.035. Work on PPPPLPPPPSPA yielded a protein stability index of 0.7911 ± 0.0045. In the case of PSPPLPRPLSPP, the protein stability index is reported as 0.72 ± 0.045. With EKIERDKRKKVK the protein stability index was 0.621 ± 0.0076. Work on GVGGAGIGVGMG yielded a protein stability index of 0.705 ± 0.032. With LRFLLLRFILRS the protein stability index was 0.472 ± 0.048. In the case of IVCLWVAGHFGL, the protein stability index is reported as 0.602 ± 0.014. In the case of WAVGLNPSGLGT, the protein stability index is reported as 0.651 ± 0.063. GFLVNNCLGFLW was tested, and the protein stability index was 0.782 ± 0.051. Work on SSRCRGYLFVDG yielded a protein stability index of 0.738 ± 0.043. Work on SNCRLCGFGYVE yielded a protein stability index of 0.6966 ± 0.0062. In the case of LSSTGFDLWSLL, the protein stability index is reported as 0.769 ± 0.067. With RSGSVGGMECHV the protein stability index was 0.7 ± 0.18. Sequence PPLPPAPTPALP has a protein stability index of 0.684 ± 0.029. For PLLPPALPASPF, the protein stability index was 0.6972 ± 0.0019. In the case of PSAPPTPLAPSH, the protein stability index is reported as 0.678 ± 0.028. For RPSHSPAFSAFF, the protein stability index was 0.681 ± 0.024. YFLPESKIGRSG gave a protein stability index of 0.705 ± 0.023. For PASPPTSPRSVP, the protein stability index was 0.742 ± 0.022. SYRLILGSSPHP showed a protein stability index of 0.619 ± 0.089.
